Data: patent US20090068207A1, “Compositions Containing Beta 2-Glycoprotein I-Derived Peptides for the Prevention and/or Treatment of Vascular Disease” (Vascular Biogenics Ltd., priority 2005, published 2009)

How the values were obtained:
Format in all cases: in vivo
LDL-RD mice [1] = assay: Aortic sinus lesion area after nasal tolerance induction, Western diet; conditions: End, mean ± S.E
Experimental: Nasal Tolerance: Nasal tolerance was induced by intranasal administration of oxidized LDL, β2GPI, β2GPI-derived peptides or HSP65, in a total volume of 10 μl PBS. Intranasal administration was performed on mildly sedated mice (12-16 weeks old), each mouse receiving 3 doses of antigen per dose, in the indicated concentrations, every other day. Atherogenesis was induced by 5 weeks of a Western diet initiated on the day following the last intranasal administration, or assessed (in Apo E KO mice) after 8 weeks on a chow diet. Controls received equal amounts of BSA and/or PBS, as indicated, in an identical regimen. Plasma was obtained for assessment of cholesterol and triglyceride levels from all mice, and the mice were sacrificed for evaluation of atherosclerosis, as described hereinbelow, after 5 weeks Western diet, or (in Apo E KO mice) after 8 weeks on a chow diet.
Assessment of Atherosclerosis: Quantification of atherosclerotic fatty streak lesions was done by calculating the lesion size in the aortic sinus as previously described (16) and by calculating the lesion size in the aorta. Briefly, after perfusion with saline Tris EDTA, the heart and the aorta were removed from the animals and the peripheral fat cleaned carefully. The upper section of the heart was embedded in OCT medium (10.24% w/w polyvinyl alcohol; 4.26% w/w polyethylene glycol; 85.50% w/w nonreactive ingredients) and frozen. Every other section (10 μm thick) throughout the aortic sinus (400 μm) was taken for analysis. The distal portion of the aortic sinus was recognized by the three valve cusps that are the junctions of the aorta to the heart. Sections were evaluated for fatty streak lesions after processing and staining with oil-red O, according to Paigen et al (Atherosclerosis, 1987; 68:231-40). Lesion areas per section were scored on a grid (17) by an observer counting unidentified, numbered specimens. The aorta was dissected from the heart and surrounding adventitious tissue was removed. Fixation of the aorta and Sudan staining of the vessels were performed as previously described (21).
Mice were bled prior to feeding (Time 0) and at the conclusion of the experiment (End) for determination of lipid profile. Atherosclerosis was assessed in heart and aorta as described above, 8 weeks after the last feeding. Mice were weighed every 2 weeks during the experiment. All mice were fed water ad libitum and a normal chow-diet containing 4.5% fat by weight (0.02% cholesterol), up to the final antigen exposure, and then a “Western” diet until sacrifice.
Thus, nasal exposure to a low dose and an exceedingly low dose of recombinant human HSP 65 were compared for their effectiveness in suppressing atherogenesis in LDL-RD mice. 58 male 12-16 week old LDL-RD mice were divided into 4 groups.

LDL-RD mice [2] = assay: Aortic sinus lesion area after oral administration, Western diet; conditions: for Aortic sinus lesion (μm^2): End, mean ± S.E
Experimental: Oral Tolerance: For comparison, oral tolerance to plaque-associated molecules was induced by feeding […] of antigen every other day (for a detailed account of induction of oral tolerance, see U.S. patent application Ser. No. 09/806,400 to Shoenfeld et al filed Sep. 30, 1999), in a similar regimen to the nasal tolerance. LDL-RD mice were fed by a nasogastric tube, five doses (every other day) of human or bovine β2GPI in PBS in two different concentrations (500 and 50 μg/dose).
Oral tolerance to β2GPI-derived peptides, alone or in combination was induced by feeding 100 μg of the peptides (prepared in PBS, 0.2 ml), as detailed hereinabove, every other day for a total of 5 doses of 100 μg. One day following the last feeding, all mice were switched from chow-diet to an atherogenic “Western” diet and sacrificed five weeks later.
(§1) Assessment of Atherosclerosis: Quantification of atherosclerotic fatty streak lesions was done by calculating the lesion size in the aortic sinus as previously described (16) and by calculating the lesion size in the aorta. Briefly, after perfusion with saline Tris EDTA, the heart and the aorta were removed from the animals and the peripheral fat cleaned carefully. The upper section of the heart was embedded in OCT medium (10.24% w/w polyvinyl alcohol; 4.26% w/w polyethylene glycol; 85.50% w/w nonreactive ingredients) and frozen. Every other section (10 μm thick) throughout the aortic sinus (400 μm) was taken for analysis. The distal portion of the aortic sinus was recognized by the three valve cusps that are the junctions of the aorta to the heart. […] Lesion areas per section were scored on a grid (17) by an observer counting unidentified, numbered specimens. The aorta was dissected from the heart and surrounding adventitious tissue was removed. Fixation of the aorta and Sudan staining of the vessels were performed as previously described (21).
LDL-receptor deficient (LDL-RD; LDLR −/−) mice created on a C57BL/6 background develop accelerated atherosclerosis when fed a high cholesterol diet, but not when fed a regular chow diet. In order to determine whether mucosal administration of the plaque antigen β2GPI could suppress atherogenic processes, LDL-RD mice were fed low, oral tolerance inducing doses of human and bovine β2GPI, and the assessed for alterations in response to diet.

ApoE-KO mice = assay: Aortic sinus lesion area after oral administration in ApoE-KO mice; conditions: End t = 16 wks; oral 50 μg/mouse; ApoE-KO mice; mean ± S.E
Text: as §1
In order to determine the protective effect of mucosal administration of β2GPI on development of atherosclerosis, adult ApoE-KO mice were treated with oral administration of human β2GPI. 20 week-old male ApoE-KO mice, having advanced atherosclerotic lesions were treated monthly with human β2GPI (50 μg/dose) or PBS (0.2 ml) in 5 oral administrations (by gavage, as described hereinabove) given every other day, for four months. Lesion area calculated from cryosections of the aortic sinus were compared between control untreated 20 week old mice, and mice following 16 weeks oral administration of β2GPI or PBS.
10-11 week-old male ApoE-KO mice, having early atherosclerotic lesions, were treated with 5 oral administrations (by gavage, as described hereinabove) given every other day of human β2GPI peptide S-4 (SEQ ID NO: 14) or human β2GPI (50 μg/dose) or PBS (0.2 ml). Lesion areas calculated from cryosections of the aortic sinus were compared between control untreated, human β2GPI treated and S-4 human β2GPI-derived peptide treated mice at 8 weeks following the last oral administration of the antigens, or of PBS.

B1: HSP65: recombinant human HSP 65 according to Example 2 and Table 2 (protein, UniProt P10809 27-573, looked up)
60 kDa heat shock protein, …: AKDVKFGADARALMLQGVDLLADAVAVTMGPKGRTVIIEQSWGSPKVTKDGVTVAKSIDLKDKYKNIGAKLVQDVANNTNEEAGDGTTTATVLARSIAKEGFEKISKGANPVEIRRGVMLAVDAVIAELKKQSKPVTTPEEIAQVATISANGDKEIGNIISDAMKKVGRKGVITVKDGKTLNDELEIIEGMKFDRGYISPYFINTSKGQKCEFQDAYVLLSEKKISSIQSIVPALEIANAHRKPLVIIAEDVDGEALSTLVLNRLKVGLQVVAVKAPGFGDNRKNQLKDMAIATGGAVFGEEGLTLNLEDVQPHDLGKVGEVIVTKDDAMLLKGKGDKAQIEKRIQEIIEQLDVTTSEYEKEKLNERLAKLSDGVAVLKVGGTSDVEVNEKKDRVTDALNATRAAVEEGIVLGGGCALLRCIPALDSLTPANEDQKIGIEIIKRTLKIPAMTIAKNAGVEGSLIVEKIMQSSSEVGYDAMAGDFVNMVEKGIIDPTKVVRTALLDAAGVASLLTTAEVVVTEIPKEEKDPGMGAMGGMGGGMGGGMF
B1 was tested, and the “Aortic sinus lesion (μm^2)” value (LDL-RD mice [1]; intranasal 1 μg/mouse) was 17109 ± 2053 μm^2 and the “Aortic sinus lesion (μm^2)” value (LDL-RD mice [1]; intranasal 10 μg/mouse) was 22292 ± 2691 μm^2.

B2: B-β2 GPI: bovine beta2-glycoprotein I purified from serum (protein, UniProt P17690 20-345, looked up)
Beta-2-glycoprotein 1: GRTCPKPDELPFSTVVPLKRTYEPGEQIVFSCQPGYVSRGGIRRFTCPLTGLWPINTLKCMPRVCPFAGILENGTVRYTTFEYPNTISFSCHTGFYLKGASSAKCTEEGKWSPDLPVCAPITCPPPPIPKFASLSVYKPLAGNNSFYGSKAVFKCLPHHAMFGNDTVTCTEHGNWTQLPECREVRCPFPSRPDNGFVNHPANPVLYYKDTATFGCHETYSLDGPEEVECSKFGNWSAQPSCKASCKLSIKRATVIYEGERVAIQNKFKNGMLHGQKVSFFCKHKEKKCSYTEDAQCIDGTIEIPKCFKEHSSLAFWKTDASDVKPC
B2 was tested, and the “Aortic sinus lesion (μm^2)” value (LDL-RD mice [2]; oral 50 μg) was 27422 ± 3007 μm^2, the “Aortic sinus lesion (μm^2)” value (LDL-RD mice [2]; oral 500 μg) was 20781 ± 2290 μm^2 and the “reduction of atherosclerosis as compared with BSA-fed controls” value (LDL-RD mice [2]; oral 50 μg/dose) was 57%. The “reduction of atherosclerosis as compared with BSA-fed controls” value (LDL-RD mice [2]; oral 500 μg/dose) was 43%.

B3: B-β2GPI: head of Table 5; text and footnote say human β2GPI, 50 μg/mouse orally (protein, UniProt P02749 20-345, looked up)
Beta-2-glycoprotein 1: GRTCPKPDDLPFSTVVPLKTFYEPGEEITYSCKPGYVSRGGMRKFICPLTGLWPINTLKCTPRVCPFAGILENGAVRYTTFEYPNTISFSCNTGFYLNGADSAKCTEEGKWSPELPVCAPIICPPPSIPTFATLRVYKPSAGNNSLYRDTAVFECLPQHAMFGNDTITCTTHGNWTKLPECREVKCPFPSRPDNGFVNYPAKPTLYYKDKATFGCHDGYSLDGPEEIECTKLGNWSAMPSCKASCKVPVKKATVVYQGERVKIQEKFKNGMLHGDKVSFFCKNKEKKCSYTEDAQCIDGTIEVPKCFKEHSSLAFWKTDASDVKPC
B3 was tested, and the “Aortic sinus lesion (μm^2)” value (ApoE-KO mice) was 221042 ± 14472 μm^2.
